# T1: human CD70 on cells (CD70-positive 786-O cells, Raji cells, CHO-S cells expressing human full-length CD70, … (human, UniProt P32970 1-193))
# T1 construct: whole, on cells; Endogenous on 786-O, Raji and U266 cells; transfected full-length human CD70 on CHO-S cells; also called CD70-positive cells
# T1 sequence (looked up): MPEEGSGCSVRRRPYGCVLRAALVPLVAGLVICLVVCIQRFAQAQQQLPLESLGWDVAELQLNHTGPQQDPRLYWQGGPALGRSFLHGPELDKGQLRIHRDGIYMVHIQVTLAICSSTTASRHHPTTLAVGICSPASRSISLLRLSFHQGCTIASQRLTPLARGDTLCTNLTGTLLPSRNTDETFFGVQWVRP
# T2: His-tagged CD70 protein extracellular domain (His-TNC-CD70) (human)
# T2 construct: Expressed in 293 cells; also called human His-TNC-CD70 antigen; human CD70 antigen
# T2 chain: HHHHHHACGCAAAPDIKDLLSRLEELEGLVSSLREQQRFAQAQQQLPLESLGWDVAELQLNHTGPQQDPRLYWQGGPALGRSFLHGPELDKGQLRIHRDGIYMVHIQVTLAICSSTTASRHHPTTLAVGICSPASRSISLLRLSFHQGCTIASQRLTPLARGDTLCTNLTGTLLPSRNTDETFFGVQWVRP
# Tests used:
# [1] = molecular target: T1, human CD70 on cells (CD70-positive …); assay: flow cytometry on CD70-positive 786-O cells, Alexa Fluor 488 goat anti-human (H+L) detection
# Protocol: (§1) 786-O cells (ATCC, CRL-1932) or Raji cells (ATCC, CCL-86) at 1×10⁶ cells/mL were blocked with 1% BSA PBS buffer, followed by the addition of diluted anti-CD70 antibody samples at different concentrations were added, and the mixture was incubated for 1 h. After the plate was washed twice, Alexa Fluor 488-goat anti-human (H+L) antibody (Invitrogen, CAT #A 11013) was added, and the mixture was incubated for 1 h. After the plate was washed twice, fluorescence signals were read using a flow cytometer.
# [2] = molecular target: T1, human CD70 on cells (CD70-positive …); assay: flow cytometry competition on CHO-S cells expressing human full-length CD70; blocked ligand: biotin-labeled CD27-Fc, Alexa Fluor 488 streptavidin detection
# Protocol: The cell-blocking activity of the anti-CD70 antibodies was assayed by flow cytometry. CHO-S cells expressing human full-length CD70 (Invitrogen, R80007) at 1×10⁶ cells/mL were blocked with 1% BSA PBS buffer, followed by the addition with diluted anti-CD70 antibody samples at different concentrations and biotin-labeled CD27-Fc (set forth in SEQ ID NO: 84), and the mixture was incubated for 1 h. After the plate was washed twice, Alexa Fluor 488-streptavidin (Invitrogen, CAT #S11223) was added, and the mixture was incubated for 1 h. After the plate was washed twice, fluorescence signals were read using a flow cytometer.
# [3] = molecular target: T2, His-tagged CD70 protein extracellular …; assay: SPR Biacore T200, antibody captured by anti-human Fc, His-TNC-CD70 in flow, 1:1 model
# Protocol: The affinity of the chimeric and humanized antibodies of the present disclosure for the human CD70 antigen was tested using a Biacore instrument. The procedures are as follows:
# The human Fc capture molecules were covalently coupled to a CM5 biosensor chip (CAT #BR-1005-30, GE) according to the method described in the instructions of the human Fc capture kit (CAT #BR-1008-39, GE) for affinity capture of the antibodies to be tested. Then, a human His-TNC-CD70 antigen (set forth in SEQ ID NO: 1) flowed through the surface of the chip, and the reaction signal was detected in real time using a Biacore T200 instrument to obtain association and dissociation curves. After the dissociation was completed for each cycle, the biochip was washed and regenerated with a regeneration solution configured in the human antibody capture kit (GE). Data were fitted using a 1:1 model.
# [4] = molecular target: T1, human CD70 on cells (CD70-positive …); assay: cell-based or functional assay
# [5] = molecular target: T3, fusion protein of the monkey CD70 protein extracellular domain and Human-IgG1-Fc (monkey CD70-Fc) (monkey); assay: ELISA, plate coated with 1 µg/mL monkey CD70-Fc, HRP goat anti-human F(ab')2 detection
# T3 construct: also called monkey CD70 antigen
# T3 sequence (chain, as listed by the source limits assumed): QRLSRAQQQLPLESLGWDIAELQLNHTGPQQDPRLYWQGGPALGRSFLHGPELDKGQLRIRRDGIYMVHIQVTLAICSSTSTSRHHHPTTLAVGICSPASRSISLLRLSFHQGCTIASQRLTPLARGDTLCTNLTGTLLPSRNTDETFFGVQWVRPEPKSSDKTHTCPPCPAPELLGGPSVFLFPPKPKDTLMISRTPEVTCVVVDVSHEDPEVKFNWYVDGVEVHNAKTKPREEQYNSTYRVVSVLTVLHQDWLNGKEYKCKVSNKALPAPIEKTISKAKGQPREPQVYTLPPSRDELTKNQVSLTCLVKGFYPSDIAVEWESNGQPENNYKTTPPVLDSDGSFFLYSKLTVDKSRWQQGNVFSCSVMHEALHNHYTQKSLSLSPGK
# Protocol: (§2) The binding ability of the anti-CD70 antibodies was determined by the amount of the antibodies bound to the CD70 antigen protein immobilized on the ELISA plate. 1 μg/mL human CD70-Fc (set forth in SEQ ID NO: 2), monkey CD70-Fc (set forth in SEQ ID NO: 82) and mouse CD70-Fc (set forth in SEQ ID NO: 83) were coated, incubated and blocked. […] OD450 values were measured on a microplate reader.
# [6] = molecular target: T4, fusion protein of the murine CD70 protein extracellular domain and Human-IgG1-Fc (mouse CD70-Fc) (mouse); assay: ELISA, plate coated with 1 µg/mL mouse CD70-Fc, HRP goat anti-human F(ab')2 detection
# T4 construct: also called mouse CD70 antigen
# T4 sequence (chain, as listed by the source limits assumed): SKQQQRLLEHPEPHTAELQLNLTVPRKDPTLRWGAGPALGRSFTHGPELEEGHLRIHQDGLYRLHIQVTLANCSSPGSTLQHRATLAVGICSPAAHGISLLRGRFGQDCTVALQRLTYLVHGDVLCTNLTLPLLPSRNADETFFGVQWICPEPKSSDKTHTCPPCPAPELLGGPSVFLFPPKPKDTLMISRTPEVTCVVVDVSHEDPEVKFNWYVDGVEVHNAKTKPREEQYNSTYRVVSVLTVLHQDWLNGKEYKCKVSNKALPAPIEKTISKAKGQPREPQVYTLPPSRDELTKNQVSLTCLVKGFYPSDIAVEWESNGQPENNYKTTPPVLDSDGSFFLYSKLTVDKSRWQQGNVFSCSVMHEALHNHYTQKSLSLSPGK
# Protocol: as §2
# [7] = molecular target: fusion protein of the CD70 protein extracellular domain and Human-IgG1-Fc (human CD70-Fc) (human); assay: ELISA, plate coated with 1 µg/mL human CD70-Fc, HRP goat anti-human F(ab')2 detection
# fusion protein of the CD70 protein extracellular domain and Human-IgG1-Fc (human CD70-Fc) (human), sequence (chain, as listed by the source limits assumed): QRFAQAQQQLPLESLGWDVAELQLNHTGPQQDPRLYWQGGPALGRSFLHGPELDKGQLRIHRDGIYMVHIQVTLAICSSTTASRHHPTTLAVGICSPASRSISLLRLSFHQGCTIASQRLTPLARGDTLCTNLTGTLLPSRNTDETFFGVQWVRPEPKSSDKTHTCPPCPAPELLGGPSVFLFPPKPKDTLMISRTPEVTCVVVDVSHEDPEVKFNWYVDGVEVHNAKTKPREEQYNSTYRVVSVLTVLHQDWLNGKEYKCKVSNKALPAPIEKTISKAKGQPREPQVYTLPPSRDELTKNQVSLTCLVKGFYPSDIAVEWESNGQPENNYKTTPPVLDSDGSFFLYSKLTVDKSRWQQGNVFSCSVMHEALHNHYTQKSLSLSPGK
# Protocol: as §2
# [8] = molecular target: T1, human CD70 on cells (CD70-positive …); assay: flow cytometry on CD70-positive Raji cells, Alexa Fluor 488 goat anti-human (H+L) detection
# Protocol: as §1
EC50 (read off the curve) [1] [µg/mL],IC50 (read off the curve) [2] [µg/mL],Kd [3] [nM],koff [3] [s⁻¹],kon [3] [M⁻¹ s⁻¹],"IC50 (ng/mL), inhibition of IL-8 secretion mediated by CD70/CD27 binding (U266 cells + HT1080/CD27 cells) [4] [ng/mL]","Imax (%), maximum inhibition rate of IL-8 secretion from CD27 cells [4] [%]",EC50 (read off the curve) [5] [µg/mL],binding result [6],binding result [7],EC50 (read off the curve) [8] [µg/mL],EC50 (read off the curve) [7] [µg/mL],binding result [5],Binder
~0.02,~0.4,0.0286,0.000174,6.09e+06,21,98.7,~0.03,no binding (tested: 10 µg/mL (log 1)),binds,,,,"huB7002 (antibody, human IgG1, kappa, V domains shown, Humanized IgG1) VH: EVQLVQSGSELKKPGASVKVSCKASGYTFTNYGMNWVRQAPGQGLEWMGWINTYTGEPTYADEFKGRFVFSLDTSVSTAYLQISSLKAEDTAVYYCARGDSFTTEILRNWYFDVWGQGTTVTVSS VL: DIQMTQSPSSLSASVGDRVTITCGASENIYGALNWYQQKPGKVPKLLIYGATNLADGVPSRFSGSGSGTDFTLTISSLQPEDVATYYCQNVLSTPWTFGGGTKVEIKR"
~0.03,~0.4,0.0465,0.000145,3.12e+06,14.2,93.8,~0.05,no binding (tested: 10 µg/mL (log 1)),,~0.02,~0.03,,"huF4011 (antibody, human IgG1, kappa, V domains shown, Humanized IgG1) VH: EVQLVQSGAEVKKPGSSVKVSCKASGDTFPRYNMHWVRQAPGQGLEWMGAIFPGTGETSYNQNFKGRVTLTADKSTSTAYMELSSLRSEDTAVYYCARNSYYDYAWFTYWGQGTLVTVSS VL: DIVMTQSPDSLAVSLGERATINCRASKSVSSSGYSFMHWYQQKPGQPPKLLISLADNLESGVPDRFSGSGSGTDFTLTISSLQAEDVAVYYCQHSREFPPTFGQGTKLEIKR"
~0.02,~0.4,0.0355,0.00013,3.67e+06,,,,no binding (tested: 10 µg/mL (log 1)),,~0.02,~0.04,binds,"huB1010 (antibody, human IgG1, kappa, V domains shown, Humanized IgG1) VH: EVQMVQSGAEVKKPGASVKVSCKASGYTFTTYNIHWVRQAPGQGLEWMGDIYPGTGDASYNQKFRDRVTMTRDTSTSTVYMELSSLRSEDTAVYYCATFSRFDGWFAYWGQGTLVTVSS VL: DIVMTQSPDSLAVSLGERATINCRASRSVSTSGYSYMHWYQQKPGQPPKLLIYLADNLESGVPDRFSGSGSGTDFTLTISSLQAEDVAVYYCQHSRELPYTFGGGTKVEIKR"

# From patent publication US20230257472A1 (JIANGSU HENGRUI MEDICINE, published 2023)
